Test results reported in PMC2900185 (Biochemistry, 2010).

How the values were obtained:
[1] = target: Ste2p (R58A) (S. cerevisiae) (UniProt D6VTK4)
[2] = test system: Ste2p containing the substitution R58A; test: Binding of α-factor to Ste2p with substitution R58A; parameters: species or system Saccharomyces cerevisiae

UniProt D6VTK4, sequence (D6VTK4 whole entry R58A): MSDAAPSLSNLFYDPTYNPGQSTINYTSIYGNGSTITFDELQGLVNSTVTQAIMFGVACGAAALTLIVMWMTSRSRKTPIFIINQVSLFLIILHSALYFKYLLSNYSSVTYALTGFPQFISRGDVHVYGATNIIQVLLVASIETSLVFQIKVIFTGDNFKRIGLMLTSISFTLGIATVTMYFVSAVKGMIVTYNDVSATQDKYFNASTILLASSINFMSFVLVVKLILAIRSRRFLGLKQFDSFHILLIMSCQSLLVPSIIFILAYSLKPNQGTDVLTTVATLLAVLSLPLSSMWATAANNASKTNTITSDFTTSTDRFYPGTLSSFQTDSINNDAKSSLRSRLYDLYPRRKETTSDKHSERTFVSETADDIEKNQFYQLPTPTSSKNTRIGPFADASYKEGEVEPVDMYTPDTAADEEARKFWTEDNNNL

Substance “α-factor (as used with the ste2 R58 mutants) (peptide)” has a fold higher Kd than wild-type Ste2p [1] of 10 fold.

In the case of WHWLQLKPGQPMY [α-factor], the “fold lower affinity for α-factor relative to wild-type Ste2p” value [2] is reported as about 10 fold.
